Results taken from US20080226630A1 (SYMPHOGEN A S, published 2008).

B1: antibody 853 (clone 853) (antibody, human IgG1, kappa, V domains shown)
VH: EVQLVQSGAEVKKPGQSLKISCKTSGYIFTNYWIGWVRQRPGKGLEWMGVIFPADSDARYSPSFQGQVTISADKSIGTAYLQWSSLKASDTAIYYCARPKYYFDSSGQFSEMYYFDFWGQGTLVTVSS
VL: EIVLTQSPGTLSLSPGERATLSCRASQSVSSNYLAWYQQKPGQAPRLLIYGASSRAAGMPDRFSGSGSGTDFTLTISRLEPEDFAVYYCQQYGNSPLTFGGGTEVEIKR
B2: antibody 856 (clone 856) (antibody, human IgG1, kappa, V domains shown)
VH: QVQLVQSGAEVKKPGASVKVSCKASGYTFSNYGFSWVRQAPGRGLEWMGWISAYNGNTYYAQNLQGRVTMTTDTSTTTAYMVLRSLRSDDTAMYYCARDGNTAGVDMWSRDGFDIWGQGTMVTVSS
VL: DIVMTQTPLSLPVTPGEPASISCRSSQSLLDSNDGNTYLDWYLQKPGQSPQLLIYTFSYRASGVPDRFSGSGSGTDFTLKISRVEAEDVGVYYCMQRIEFPYTFGQGTKLEIKR
B3: Palivizumab (Synagis) (antibody, V domains shown)
VH: QVTLRESGPALVKPTQTLTLTCTFSGFSLSTSGMSVGWIRQPPGKALEWLADIWWDDKKDYNPSLKSRLTISKDTSKNQVVLKVTNMDPADTATYYCARSMITNWYFDVWGAGTTVTVSS
VL: DIQMTQSPSTLSASVGDRVTITCKCQLSVGYMHWYQQKPGKAPKLLIYDTSKLASGVPSRFSGSGSGTEFTLTISSLQPDDFATYYCFQGSGYPFTFGGGTKLEIK
B4: antibody 855 (clone 855) (antibody, human IgG1, kappa, V domains shown)
VH: QVQLVQSGPEVKKPGASVKVSCKASGYVLTNYAFSWVRQAPGQGLEWLGWISGSNGNTYYAEKFQGRVTMTTDTSTSTAYMELRSLRSDDTAVYFCARDLLRSTYFDYWGQGTLVTVSS
VL: DIQMTQSPSSVSASVGDRVTITCRASQAISNWLAWYQQKPGKAPKLLIYAASSLQSGVPSRFSGSGSGTDFTLTISGLQPEDFATYYCQQADTFPFTFGPGTKVDIKR
B5: antibody 793 (clone 793) (antibody, human IgG1, kappa, V domains shown)
VH: QVQLVESGGGLVKPGGSLRLSCAASGFPFGDYYMSWIRQAPGKGLEWVAYINRGGTTIYYADSVKGRFTISRDNAKNSLFLQMNSLRAGDTALYYCARGLILALPTATVELGAFDIWGQGTMVTVSS
VL: DIQMTQSPSSLSASVGDRVTITCRASQSITGYLNWYQQKPGKAPKLLIYATSTLQSEVPSRFSGSGSGTDFTLTISSLQPEDFATYYCQQSYNTLTFGGGTKVEIKR
B6: antibody 888 (clone 888) (antibody, human IgG1, kappa, V domains shown)
VH: QLQLQESGPGLVKPSETLSLTCTASGGSINSSNFYWGWIRQPPGKGLEWIGSIFYSGTTYYNPSLKSRVTISVDTSKNQFSLKLSPVTAADTAVYHCARHGFRYCNNGVCSINLDAFDIWGQGTMVTVSS
VL: DIVMTQSPLSLPVTPGAPASISCRSSQSLLRTNGYNYLDWYLQKPGQSPQLLIYLGSIRASGVPDRFSGSGSGTDFTLKISRVEAEDVGVYYCMQSLQTSITFGQGTRLEIKR

Assays:
[1] = biological target: T1, G protein of RSV strain Long (subtype A) (human respiratory syncytial virus …, UniProt P20895 1-298); assay: cell-based or functional assay
T1 chain: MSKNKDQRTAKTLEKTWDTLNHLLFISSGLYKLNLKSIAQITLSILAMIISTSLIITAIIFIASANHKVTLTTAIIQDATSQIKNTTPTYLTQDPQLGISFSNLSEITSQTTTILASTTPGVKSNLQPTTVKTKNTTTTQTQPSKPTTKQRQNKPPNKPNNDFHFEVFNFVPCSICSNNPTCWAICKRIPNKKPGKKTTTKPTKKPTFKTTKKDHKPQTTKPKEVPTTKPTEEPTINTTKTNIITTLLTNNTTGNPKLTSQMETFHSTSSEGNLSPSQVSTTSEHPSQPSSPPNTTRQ

[2] = biological target: T2, G protein of RSV strain 18537 (subtype B) (human respiratory syncytial virus …, UniProt P20896 1-292); assay: cell-based or functional assay
T2 sequence: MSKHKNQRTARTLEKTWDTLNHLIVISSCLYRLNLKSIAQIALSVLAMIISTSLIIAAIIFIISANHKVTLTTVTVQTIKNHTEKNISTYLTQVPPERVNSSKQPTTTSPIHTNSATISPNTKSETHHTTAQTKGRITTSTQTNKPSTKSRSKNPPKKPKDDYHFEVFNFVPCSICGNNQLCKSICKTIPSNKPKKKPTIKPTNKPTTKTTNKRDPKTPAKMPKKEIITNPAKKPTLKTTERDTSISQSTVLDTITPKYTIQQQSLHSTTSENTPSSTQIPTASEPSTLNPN

[3] = biological target: T3, recombinant human fractalkine (CX3CL1; R&D systems) (human, UniProt P78423 25-100); assay: ELISA on recombinant human fractalkine
T3 sequence (looked up): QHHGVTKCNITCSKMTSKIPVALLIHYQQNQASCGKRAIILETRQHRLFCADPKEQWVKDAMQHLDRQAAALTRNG

[4] = biological target: F protein of RSV strain A2 (human respiratory syncytial virus …, UniProt P03420 26-574); assay: cell-based or functional assay
F protein of RSV strain A2, sequence (P03420 26-574): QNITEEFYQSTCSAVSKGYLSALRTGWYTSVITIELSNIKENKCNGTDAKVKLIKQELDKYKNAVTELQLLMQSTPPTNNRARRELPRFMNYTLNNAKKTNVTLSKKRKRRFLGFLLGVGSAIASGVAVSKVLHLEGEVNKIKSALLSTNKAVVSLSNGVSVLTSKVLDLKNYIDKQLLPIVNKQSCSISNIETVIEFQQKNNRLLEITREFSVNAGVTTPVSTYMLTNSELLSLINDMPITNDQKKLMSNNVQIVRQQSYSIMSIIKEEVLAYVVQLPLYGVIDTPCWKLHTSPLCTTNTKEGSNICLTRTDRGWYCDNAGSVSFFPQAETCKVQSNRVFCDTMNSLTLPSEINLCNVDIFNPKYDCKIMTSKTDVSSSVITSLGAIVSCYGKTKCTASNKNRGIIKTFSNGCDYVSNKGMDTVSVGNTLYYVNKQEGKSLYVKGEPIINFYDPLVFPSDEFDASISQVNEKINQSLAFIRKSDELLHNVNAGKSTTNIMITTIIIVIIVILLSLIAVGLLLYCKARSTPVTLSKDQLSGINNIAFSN

[5] = biological target: F protein of RSV strain Long (human respiratory syncytial virus …, UniProt P12568 26-574); assay: cell-based or functional assay
F protein of RSV strain Long, sequence (P12568 26-574): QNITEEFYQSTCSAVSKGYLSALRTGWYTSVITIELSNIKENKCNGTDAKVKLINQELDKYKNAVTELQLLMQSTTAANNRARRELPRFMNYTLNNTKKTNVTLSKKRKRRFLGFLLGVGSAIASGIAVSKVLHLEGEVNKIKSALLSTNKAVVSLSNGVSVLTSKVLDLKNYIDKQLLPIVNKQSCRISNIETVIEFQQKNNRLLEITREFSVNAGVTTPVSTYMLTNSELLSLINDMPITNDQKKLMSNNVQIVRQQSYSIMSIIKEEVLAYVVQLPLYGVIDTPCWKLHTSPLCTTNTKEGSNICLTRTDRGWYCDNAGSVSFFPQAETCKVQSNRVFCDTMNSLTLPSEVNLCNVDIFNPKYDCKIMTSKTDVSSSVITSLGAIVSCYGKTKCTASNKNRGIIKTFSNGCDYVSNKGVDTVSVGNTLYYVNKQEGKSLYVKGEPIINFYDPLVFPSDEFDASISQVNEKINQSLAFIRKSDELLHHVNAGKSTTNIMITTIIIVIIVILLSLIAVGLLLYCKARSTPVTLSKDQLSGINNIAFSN

[6] = biological target: F protein of RSV strain 18537 (human respiratory syncytial virus …, UniProt P13843 26-574); assay: cell-based or functional assay
F protein of RSV strain 18537, sequence (P13843 26-574): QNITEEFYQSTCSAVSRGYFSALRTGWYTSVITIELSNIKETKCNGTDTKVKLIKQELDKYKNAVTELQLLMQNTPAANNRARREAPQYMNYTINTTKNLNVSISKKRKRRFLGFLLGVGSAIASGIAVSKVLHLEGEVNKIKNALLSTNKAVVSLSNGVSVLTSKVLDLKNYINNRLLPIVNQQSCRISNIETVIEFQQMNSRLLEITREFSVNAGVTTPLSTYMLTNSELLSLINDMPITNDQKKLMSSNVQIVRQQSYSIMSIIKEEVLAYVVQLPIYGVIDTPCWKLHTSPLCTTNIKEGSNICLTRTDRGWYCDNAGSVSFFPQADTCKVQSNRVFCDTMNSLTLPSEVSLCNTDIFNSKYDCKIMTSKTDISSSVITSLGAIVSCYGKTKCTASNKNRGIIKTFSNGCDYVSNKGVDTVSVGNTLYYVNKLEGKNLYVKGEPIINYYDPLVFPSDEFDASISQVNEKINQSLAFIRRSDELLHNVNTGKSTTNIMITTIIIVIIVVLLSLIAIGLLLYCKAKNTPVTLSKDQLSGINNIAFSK

Binder | EC50, PRNT with complement, RSV Long [1] | EC50, PRNT with complement, RSV Long (new determination) [1] | EC50, PRNT with complement, RSV 18537 [2] | binding result [3] | EC50, PRNT with complement, RSV A2 [4] | EC50, PRNT with complement, RSV Long [5] | EC50, PRNT with complement, RSV 18537 [6]
B1 | 1.49 µg/mL | 0.13 µg/mL | 0.14 µg/mL | no binding | – | – | –
B2 | – | – | – | no binding | – | – | –
B3 | – | – | – | – | 0.15 µg/mL | 0.14 µg/mL | 0.2 µg/mL
B4 | 6.35 µg/mL | – | – | no binding | – | – | –
B5 | 2.52 µg/mL | – | 0.09 µg/mL | no binding | – | – | –
B6 | 0.14 µg/mL | – | – | no binding | – | – | –
